Like-named read-outs stand apart in the source and are kept apart here.
T1: mouse EL (mouse, UniProt Q9WVG5 21-500)
T1 sequence (looked up): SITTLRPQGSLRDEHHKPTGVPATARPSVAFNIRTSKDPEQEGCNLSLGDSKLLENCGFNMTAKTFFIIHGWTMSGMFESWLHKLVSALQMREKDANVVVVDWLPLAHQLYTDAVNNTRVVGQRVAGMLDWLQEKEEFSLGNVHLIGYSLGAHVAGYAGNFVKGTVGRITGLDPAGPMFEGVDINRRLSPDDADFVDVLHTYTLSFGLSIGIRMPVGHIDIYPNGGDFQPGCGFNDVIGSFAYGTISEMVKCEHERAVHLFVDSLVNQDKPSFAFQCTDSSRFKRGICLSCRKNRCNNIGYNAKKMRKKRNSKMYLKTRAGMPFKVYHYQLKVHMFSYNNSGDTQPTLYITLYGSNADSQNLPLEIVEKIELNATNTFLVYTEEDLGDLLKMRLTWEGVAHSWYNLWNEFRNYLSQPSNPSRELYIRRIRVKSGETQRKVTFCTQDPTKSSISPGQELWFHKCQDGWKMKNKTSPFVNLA

T2: human [1-157]-mouse chimeric EL (human; mouse, UniProt Q9WVG5 158-500)
T2 construct: Heparin extract, detected by an anti-C2-tag antibody
T2 sequence: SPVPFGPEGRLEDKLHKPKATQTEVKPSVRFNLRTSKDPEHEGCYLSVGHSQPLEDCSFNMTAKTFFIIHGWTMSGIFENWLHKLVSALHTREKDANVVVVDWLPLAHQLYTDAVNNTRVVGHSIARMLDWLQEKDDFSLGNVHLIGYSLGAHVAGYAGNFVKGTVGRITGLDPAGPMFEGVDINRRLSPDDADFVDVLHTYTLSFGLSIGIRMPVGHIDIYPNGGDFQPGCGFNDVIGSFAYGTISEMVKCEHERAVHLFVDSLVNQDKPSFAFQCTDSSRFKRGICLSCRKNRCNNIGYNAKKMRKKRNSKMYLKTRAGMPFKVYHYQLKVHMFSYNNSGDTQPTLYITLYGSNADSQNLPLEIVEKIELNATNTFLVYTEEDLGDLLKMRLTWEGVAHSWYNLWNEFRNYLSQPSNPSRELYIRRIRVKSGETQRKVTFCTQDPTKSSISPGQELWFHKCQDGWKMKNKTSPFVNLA

T3: human [1-305]-mouse chimeric EL (human; mouse, UniProt Q9WVG5 306-500)
T3 construct: Heparin extract, captured or detected by an anti-C2-tag antibody; also called human-mouse chimeric EL
T3 sequence: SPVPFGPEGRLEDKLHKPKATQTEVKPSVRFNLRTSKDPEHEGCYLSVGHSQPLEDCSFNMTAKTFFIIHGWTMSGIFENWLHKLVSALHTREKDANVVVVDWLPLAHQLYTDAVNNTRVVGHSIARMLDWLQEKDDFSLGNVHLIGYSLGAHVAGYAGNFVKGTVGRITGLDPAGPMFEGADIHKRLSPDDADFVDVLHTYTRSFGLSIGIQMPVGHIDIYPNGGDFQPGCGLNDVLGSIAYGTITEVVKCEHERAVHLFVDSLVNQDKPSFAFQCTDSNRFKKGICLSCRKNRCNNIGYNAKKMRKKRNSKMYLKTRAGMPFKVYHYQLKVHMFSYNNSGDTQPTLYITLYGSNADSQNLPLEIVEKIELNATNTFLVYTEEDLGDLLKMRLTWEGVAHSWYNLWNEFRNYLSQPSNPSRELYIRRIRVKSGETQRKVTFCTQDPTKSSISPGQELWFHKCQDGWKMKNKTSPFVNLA

T4: human [202-500]-mouse chimeric EL (mouse; human, UniProt Q9WVG5 21-201)
T4 construct: Heparin extract, detected by an anti-C2-tag antibody
T4 sequence: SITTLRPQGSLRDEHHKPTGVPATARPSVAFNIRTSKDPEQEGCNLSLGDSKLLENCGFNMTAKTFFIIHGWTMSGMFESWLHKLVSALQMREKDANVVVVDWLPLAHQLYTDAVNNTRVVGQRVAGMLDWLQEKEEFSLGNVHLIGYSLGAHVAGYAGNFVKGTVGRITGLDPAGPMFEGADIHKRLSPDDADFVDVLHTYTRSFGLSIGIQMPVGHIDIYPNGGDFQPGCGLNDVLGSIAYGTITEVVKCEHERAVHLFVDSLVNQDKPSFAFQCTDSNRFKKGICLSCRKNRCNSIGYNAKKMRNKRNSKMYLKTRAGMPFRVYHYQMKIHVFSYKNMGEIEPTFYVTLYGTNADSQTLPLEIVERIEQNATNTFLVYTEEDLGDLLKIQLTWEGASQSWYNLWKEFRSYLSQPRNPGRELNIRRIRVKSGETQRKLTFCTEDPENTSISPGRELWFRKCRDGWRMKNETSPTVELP


Legend:
mouse EL [1] = target: T1, mouse EL; assay: cell-based or functional assay
baboon EL [2] = target: baboon EL (baboon); assay: cell-based or functional assay
mouse EL [3] = target: T1, mouse EL; assay: Biacore; EL captured by anti-C2-tag Ab; bivalent fit
Procedure: (§1) The binding affinities of anti-EL antibodies were measured using Biacore. […] Then, anti-EL humanized antibodies were added and the binding affinities were calculated by bivalent fitting of BIAevaluation software.

baboon EL [4] = target: T5, baboon EL (baboon); assay: as above
T5 construct: Heparin extract
Procedure: as §1

rabbit EL = rabbit EL (rabbit); assay: cell-based or functional assay
baboon EL [5] = target: T5, baboon EL; assay: cell-based or functional assay; remark: listed apart in the source
cynomolgus monkey EL [6] = target: cynomolgus monkey EL (cynomolgus monkey); assay: cell-based or functional assay
[7] = target: human-mouse chimeric EL (construct not specified); assay: cell-based or functional assay
cynomolgus monkey EL [8] = target: T6, cynomolgus monkey EL (cynomolgus monkey); assay: Biacore; EL captured by anti-C2-tag Ab; bivalent fit
T6 construct: Heparin extract; also called cynomolgus EL; Cynomolgus EL
Procedure: (§2) The binding affinities of anti-EL antibodies were measured using Biacore. […] Then, anti-EL antibodies were added and the binding affinities were calculated by bivalent fitting of BIAevaluation software.

[9] = target: T2, human [1-157]-mouse chimeric EL; assay: ELISA: antibody captured on anti-mouse IgG-Fc plate, EL heparin extract added, detection with biotin anti-C2-tag antibody and HRP-streptavidin, A450
Procedure: (§3) Assay buffer containing 15 μl of anti-EL antibody was added to anti-mouse IgG-Fc antibody-immobilized microtiter plate, and incubated for 2 hr. […] After washing the wells three times with 90 μL of washing buffer, 15 μl of assay buffer containing biotin-labeled anti-C2-tag antibody and HRP-labeled Streptavidin were added to the wells and incubated at room temperature for 1 hr. After washing the wells three times with 90 μL of washing buffer, 15 μL of TMB+—Substrate—Chromogen (DAKO) was added and incubated at room temperature for 30 min and then 15 μL of 0.05 M H2SO₄ was added and absorbance at 450 nm was measured (FIG. 3A to 3K).

[10] = target: T3, human [1-305]-mouse chimeric EL; assay: as above
Procedure: as §3

mouse EL [11] = target: T1, mouse EL; assay: as above
Procedure: as §3

cynomolgus monkey EL [12] = target: T6, cynomolgus monkey EL; assay: as above
Procedure: as §3

cynomolgus monkey EL [13] = target: T6, cynomolgus monkey EL; assay: cell-based or functional assay; remark: listed apart in the source
[14] = target: T3, human [1-305]-mouse chimeric EL; assay: Biacore; EL captured by anti-C2-tag Ab; bivalent fit
Procedure: as §2

baboon EL [15] = target: T5, baboon EL; assay: as above; remark: listed apart in the source
Procedure: as §2

[16] = target: T3, human [1-305]-mouse chimeric EL; assay: cell-based or functional assay
baboon EL [17] = target: T5, baboon EL; assay: ELISA: antibody captured on anti-mouse IgG-Fc plate, EL heparin extract added, detection with biotin anti-C2-tag antibody and HRP-streptavidin, A450
Procedure: as §3

[18] = target: T4, human [202-500]-mouse chimeric EL; assay: as above
Procedure: as §3

Neutralizing activity IC50 (rabbit EL) [nM]	Neutralizing activity IC50 (baboon EL [5]) [nM]	Neutralizing activity IC50 (cynomolgus monkey EL [6]) [nM]	Neutralizing activity IC50 [7] [nM]	Kd (cynomolgus monkey EL [8]) [nM]	koff (cynomolgus monkey EL [8]) [s⁻¹]	kon (cynomolgus monkey EL [8]) [M⁻¹ s⁻¹]	EC50 (read off the curve) [10] [ng/mL]	binding result (mouse EL [11])	EC50 (read off the curve) (cynomolgus monkey EL [12]) [ng/mL]	Kd [14] [nM]	koff [14] [s⁻¹]	kon [14] [M⁻¹ s⁻¹]	Kd (baboon EL [15]) [nM]	koff (baboon EL [15]) [s⁻¹]	kon (baboon EL [15]) [M⁻¹ s⁻¹]	EC50 (read off the curve) (baboon EL [17]) [ng/mL]	EC50 (read off the curve) [18] [ng/mL]	Binder	other results
																		h16F6-S1 (antibody, V domains shown, humanized) VH: QVQLVQSGAEVKKPGASVKVSCKASGYTFTTYWIAWVRQAPGQGLEWMGEILPGSAKTKYNKKFKGRVTMTRDTSTSTVYMELSSLRSEDTAVYYCAVYDYGADYWGQGTTVTVSS VL: DIQMTQSPSSLSASVGDRVTITCKASQDVYTAVAWYQQKPGKSPKLLIYSASYRFTGVPSRFSGSGSGTDFTLTISSLQPEDFATYYCQQHYSIPRTFGGGTKVEIK	Neutralizing activity IC50 (mouse EL [1]): 3.1 nM; Neutralizing activity IC50 (baboon EL [2]): 2.6 nM; Kd (mouse EL [3]): 0.16 nM; koff (mouse EL [3]): 0.00019 s⁻¹; kon (mouse EL [3]): 1.2e+06 M⁻¹ s⁻¹; Kd (baboon EL [4]): 0.57 nM; koff (baboon EL [4]): 0.00074 s⁻¹; kon (baboon EL [4]): 1.3e+06 M⁻¹ s⁻¹
5.7	2	1.7	2.4	3.3	0.00018	55000	~6	no binding (tested: about 330 ng/mL)	~30									19E7 (antibody, mouse IgG2a, V domains shown, mouse IgG2a from hybridoma; also called 19E1(19E7)) VH: QVQLQQPGSVLVRPGASVKLSCKASGYTFTTYWMHWVKQRPGQGLEWIGEIHPYSGNNNNNEKFKGKATLTVDTSSSTAYVDLSRLTSEDSAVYYCARYDSNYVFAYWGQGTLVTVSA VL: QIVLTQSPAIMSASPGEGVTITCSASSSVSYMHWFQQKPGTSPKLWIYSTSNLASGVPARFSGSGSGTSYSLTISRMEAEDAATYYCQQRDSYLTFGSGTKLEVK	binding result [9]: no binding (tested: about 330 ng/mL)
6.3	3	1.9	1.3	2.1	8.9e-05	42000	~3	no binding (tested: about 330 ng/mL)	~4	3.7	0.00019	51000	3.2	9.8e-05	31000	~5	~4	16B3 (antibody, mouse IgG2a, V domains shown, mouse IgG2a from hybridoma; also called 16B3 (mouse mAb)) VH: DVKLVESGGGLVQPGGSLKLSCTASGFTFSGYTMSWVRQTPEKRLELVAEISFARDRAFYPDTVKGRFTISRDNAKNTLYLQMSSLKSEDTAMYYCTRLGGRNHDYWYFDVWGTGTTVTVSS VL: DIVLTQSPTSLAVSPGQRATISCRASESVEYYGTSLMQWYQQKPGQRPQLLIYAASNVESGVPARFSGSGSGTDFSLNIHPVEEDDIAVYFCQQSWKVPFTFGSGTKLEIK	Neutralizing activity IC50 (cynomolgus monkey EL [13]): 1.8 nM; Neutralizing activity IC50 [16]: 1.3 nM
> 40	2.1	2.5	1.1				~6		~6	1.1	0.0001	95000	4.7	0.00025	53000		~8	16E7 (antibody, mouse IgG1, V domains shown, mouse IgG1 from hybridoma) VH: EVKLVESGGGLVQPGGSLKLSCAASGFTFSSYTMSWVRQTPEKRLELVAEISFTRSRAFYPDTVKGRFTISRDNAKNTLYLQMSSLKSEDTAMYYCARLGGNNYDYWYFDVWGTGTTVTVSS VL: DIVLTQSPTSLAVSLGQRATISCRASESVEYYGTSLMQWYQQKPGQRPKLLIYAASNVESGVPARFSGSGSGTDFSLNIHPVEEDDIAMYFCQQSWKVPFTFGSGTKLEIK	
5.9	3.3	2.4	1.4	5.9	0.00069	120000	~7		~10	5.4	0.00023	42000	5.8	0.00085	150000	~20	~20	14E1 (antibody, mouse IgG1, V domains shown, mouse IgG1 from hybridoma) VH: QVQLQQSGAELVKPGASVRLSCKASGYTFTKYTIHWVKQRSGQGLEWIGWFYPGSDSIKYNEKFKDKATLTADKSSRTVYMELSRLTSEDSAVYFCARHEEYTNSLAYWGQGTLVTVSA VL: DIQMTQTTSSLSASLGDRVTISCRASQDISNYLNWYQQQPDGTVKLLIYYTSRLHSGVPSRFSGSGSGTDYSLTISNLEQEDIATYFCQQGYTLPWTFGGGTNLEIK	

From patent publication US20200071424A1 (SHIONOGI, published 2020)
